Measured values taken from patent US20210388084A1.

Columns and labels:
[1] = molecular target: membrane-bound full-length human CD89 (human) (UniProt P24071); assay: FACS, HEK293F-huCD89, 4C +NaN3, IgA then Ab 10 ug/mL; pre-bound non-aggr serum IgA
[2] = molecular target: membrane-bound full-length human CD89 (human) (UniProt P24071); assay: FACS, HEK293F-huCD89, 24 h 37C no NaN3, Ab 10 ug/mL then IgA; competitor heat-aggr serum IgA
[3] = molecular target: membrane-bound full-length human CD89 (human) (UniProt P24071); assay: FACS, HEK293F-huCD89, 24 h 37C no NaN3, IgA then Ab 10 ug/mL; pre-bound non-aggr serum IgA
[4] = molecular target: membrane-bound full-length human CD89 (human) (UniProt P24071); assay: FACS, HEK293F-huCD89, 4C +NaN3, Ab 10 ug/mL then IgA; competitor non-aggr serum IgA
[5] = molecular target: membrane-bound full-length human CD89 (human) (UniProt P24071); assay: FACS, HEK293F-huCD89, 24 h 37C no NaN3, Ab 10 ug/mL then IgA; competitor non-aggr serum IgA
[6] = molecular target: membrane-bound full-length human CD89 (human) (UniProt P24071); assay: FACS, HEK293F-huCD89, 4C +NaN3, Ab 10 ug/mL then IgA; competitor heat-aggr serum IgA
[7] = molecular target: membrane-bound full-length human CD89 (human) (UniProt P24071); assay: FACS, HEK293F-huCD89, 4C +NaN3, IgA then Ab 10 ug/mL; pre-bound heat-aggr serum IgA
[8] = molecular target: membrane-bound full-length human CD89 (human) (UniProt P24071); assay: FACS, HEK293F-huCD89, 24 h 37C no NaN3, IgA then Ab 10 ug/mL; pre-bound heat-aggr serum IgA
[9] = molecular target: membrane-bound full-length human CD89 (human) (UniProt P24071); assay: FACS, HEK293F-huCD89, unlabeled Ab 10 ug/mL first; competitor A3-PE
[10] = molecular target: membrane-bound full-length human CD89 (human) (UniProt P24071); assay: FACS, HEK293F-huCD89, unlabeled Ab 10 ug/mL first; competitor A59-PE
[11] = molecular target: membrane-bound full-length human CD89 (human) (UniProt P24071); assay: FACS, HEK293F-huCD89, unlabeled Ab 10 ug/mL first; competitor MIP8a-PE
[12] = molecular target: membrane-bound full-length human CD89 (human) (UniProt P24071); assay: FACS, HEK293F-huCD89 (Example 7 (b)); competitor non-aggr serum IgA
[13] = molecular target: membrane-bound full-length human CD89 (human) (UniProt P24071); assay: FACS, HEK293F-huCD89, titrated Ab; competitor non-aggr serum IgA
[14] = molecular target: membrane-bound full-length human CD89 (human) (UniProt P24071); assay: FACS, HEK293F-huCD89, titrated Ab; competitor heat-aggr serum IgA
[15] = molecular target: membrane-bound full-length human CD89 (human) (UniProt P24071); assay: FACS, HEK293F-huCD89 (Example 7 (b)); competitor heat-aggr serum IgA

Substance: purified mouse IgG1 isotype control (antibody)
- percent IgA binding [1]: 76 to 125%
- percent IgA binding (remaining) [2]: 76 to 125%
- percent IgA binding (remaining) [3]: 76 to 125%
- percent IgA binding [4]: 76 to 125%
- percent IgA binding (remaining) [5]: 76 to 125%
- percent IgA binding [6]: 76 to 125%
- percent IgA binding [7]: 76 to 125%
- percent IgA binding (remaining) [8]: 76 to 125%

Substance: mouse anti-human CD89 antibody clone MIP8a (BioRad)
- percent IgA binding [1]: 0 to 25%
- percent IgA binding (remaining) [2]: 0 to 25%
- % blocking of A3-PE binding [9]: 55%
- % blocking of A59-PE binding [10]: 50%
- percent IgA binding (remaining) [3]: 0 to 25%
- % blocking of MIP8a-PE binding [11]: > 90%
- percent IgA binding [4]: 0 to 25%
- percent IgA binding (remaining) [5]: 0 to 25%
- percent IgA binding [6]: 0 to 25%
- percent IgA binding [7]: 0 to 25%
- percent IgA binding (remaining) [8]: 0 to 25%

Substance: mouse anti-human CD89 antibody clone A3 (Santa Cruz Biotechnology)
- percent IgA binding [1]: 76 to 125%
- maximum inhibition of IgA binding [12]: 60%
- percent IgA binding (remaining) [2]: 76 to 125%
- % blocking of A3-PE binding [9]: > 90%
- % blocking of A59-PE binding [10]: > 90%
- % blocking of MIP8a-PE binding [11]: < 25%
- maximum inhibition of IgA binding [13]: 60%
- % blocking of IgA binding [4]: 60%
- percent IgA binding [4]: 26 to 50%
- percent IgA binding (remaining) [5]: 26 to 50%
- maximum inhibition of IgA binding [14]: 60%
- maximum inhibition of IgA binding [15]: 60%
- % blocking of IgA binding [6]: 60%
- percent IgA binding [6]: 26 to 50%
- percent IgA binding [7]: 76 to 125%
- percent IgA binding (remaining) [8]: 76 to 125%

Substance: mouse anti-human CD89 antibody clone A59 (BD Biosciences)
- percent IgA binding [1]: 76 to 125%
- maximum inhibition of IgA binding [12]: 60%
- percent IgA binding (remaining) [2]: 76 to 125%
- % blocking of A3-PE binding [9]: > 90%
- % blocking of A59-PE binding [10]: > 90%
- percent IgA binding (remaining) [3]: 26 to 50%
- % blocking of MIP8a-PE binding [11]: < 25%
- maximum inhibition of IgA binding [13]: 60%
- % blocking of IgA binding [4]: 60%
- percent IgA binding [4]: 26 to 50%
- percent IgA binding (remaining) [5]: 26 to 50%
- maximum inhibition of IgA binding [14]: 60%
- maximum inhibition of IgA binding [15]: 60%
- % blocking of IgA binding [6]: 60%
- percent IgA binding [6]: 26 to 50%
- percent IgA binding [7]: 76 to 125%
- percent IgA binding (remaining) [8]: 76 to 125%
